In publication PMC9090809 (2022):

Target: LC3-trap Wx8 (covalently labelled with an N-hydroxysuccinimide (RED-NHS) dye in the MST)
Experiment: MST

B1: recombinant LC3C (natural protein)
chain: MPPPQKIPSVRPFKQRKSLAIRQEEVAGIRAKFPNKIPVVVERYPRETFLPPLDKTKFLVPQELTMTQFLSIIRSRMVLRATEAFYLLVNNKSLVSMSATMAEIYRDYKDEDGFVYMTYASQETFG
Kd: 3.4 nM

B2: recombinant GABARAP (natural protein)
chain: MKFVYKEEHPFEKRRSEGEKIRKKYPDRVPVIVEKAPKARIGDLDKKKYLVPSDLTVGQFYFLIRKRIHLRAEDALFFFVNNVIPPTSATMGQLYQEHHEEDFFLYIAYSDESVYGL
Kd: 24.8 nM
